This note sets out measurements from patent US6376653 (GlaxoSmithKline, dated 2002).

For this assay, the target named is T1, recombinant Tie2 extracellular domain-Fc fusion (UniProt Q02763 23-748, limits assumed).
T1 construct: extracellular domain; also called Tie2-Fc; Tie2 receptor-Fc fusion; not shown: Fc part
Kind of assay: BIAcore SPR, purified mAb captured on rabbit anti-mouse IgG Fc, Tie2-Fc injected. How it is done:
The affinity of the purified mAbs was measured in the BIAcore. Using a flow rate of 10 μl/min, the mAb (diluted in HBS buffer) was injected over a rabbit anti-mouse IgG Fc surface, followed by buffer flow and the RU recorded. Tie2-Fc diluted in HBS buffer was then injected for 120 s followed by buffer flow for 240 s and regeneration of the sensor chip surface with an injection of 15 μl 0.1 M phosphoric acid. BIAcore software was used for association and dissociation-phase analysis. The murine monoclonal antibodies bound to soluble monomeric Tie2 receptor. The on-rates ($kass$) and off-rates ($kdiss$) were calculated.

T1 sequence (Q02763 23-748 limits assumed): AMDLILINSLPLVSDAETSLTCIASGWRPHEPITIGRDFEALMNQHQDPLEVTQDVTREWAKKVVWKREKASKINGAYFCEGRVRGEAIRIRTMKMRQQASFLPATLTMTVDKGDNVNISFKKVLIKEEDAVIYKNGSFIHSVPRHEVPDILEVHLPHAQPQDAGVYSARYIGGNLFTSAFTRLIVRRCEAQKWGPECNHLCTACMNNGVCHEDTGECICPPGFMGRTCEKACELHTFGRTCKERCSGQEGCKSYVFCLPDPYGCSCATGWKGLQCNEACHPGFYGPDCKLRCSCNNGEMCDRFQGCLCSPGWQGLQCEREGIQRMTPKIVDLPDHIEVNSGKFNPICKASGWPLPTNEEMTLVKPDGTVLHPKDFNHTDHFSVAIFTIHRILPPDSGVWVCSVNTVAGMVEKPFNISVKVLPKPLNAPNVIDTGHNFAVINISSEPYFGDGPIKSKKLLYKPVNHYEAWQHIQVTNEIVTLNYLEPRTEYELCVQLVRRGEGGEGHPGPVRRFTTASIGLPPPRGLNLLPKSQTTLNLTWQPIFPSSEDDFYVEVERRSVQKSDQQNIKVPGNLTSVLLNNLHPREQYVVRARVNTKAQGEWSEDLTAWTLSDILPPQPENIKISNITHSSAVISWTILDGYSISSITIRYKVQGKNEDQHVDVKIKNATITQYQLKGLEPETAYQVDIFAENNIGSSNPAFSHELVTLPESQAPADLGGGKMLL

B1: monoclonal antibody 12H8 (antibody, V domains shown)
VH: EVQLVESGGGLVKPGGSLKLSCAASGFTFSDYGMHWVRQAPEKGLEWVAYINSGSSTITYADTVKGRFTISRDNAKNTLFLQMTSLRSEDTAIYYCARGYYGPYYFDYWGQGTALTVSS
VL: DIVMTQSHKFMSTSVGDRVSFTCKASQNVGTAVAWYQQKPGQSPKLLIYWASSRHTGVPDRFTGSGSGTDFTLTITNVQSEDLADYFCQEYSSYPLTFGVGTKLELK
notes: also called mAb 12H8
As for B1, the Kd is < 0.1 nM.
